Residue numbers refer to the chain shown, from its start. In names and notes the source's numbering stands.

In patent publication US20240209076A1 (KODIAK SCIENCES, published 2024) one finds Kd, koff and kon data, which are given here for 22 molecules.

To fix the notation:
B1: anti-IL-6 antibody, light chain M32L (heavy chain WT) (antibody, V domains shown)
VH: EVQLVESGGGLVQPGGSLRLSCAASGFTFSPFAMSWVRQAPGKGLEWVAKISPGGSWTYYSDTVTGRFTFSLDTSKSTAYLQMNSLRAEDTAVYYCARQLWGYYALDIWGQGTLVTVSS
VL: DIQLTQSPSSLSASVGDRVTITCSASISVSYLYWYQQKPGKAPKLLIYDMSNLASGVPSRFSGSGSGTDFTLTISSLQPEDFATYYCMQWSGYPYTFGQGTKVEIK
notes: See note of m2; also called WT / M32L
B2: anti-IL-6 antibody, heavy chain variant I (M34I, G66D, I108V) / light chain variant IV (M32L, M50A, N52S, M88Q) (antibody, V domains shown)
VH: B1 VH with M34I, G66D, I108V
VL: B1 VL with M50A, N52S, M88Q
notes: See note of m39; also called M34I, G66D, I108V/ M32L, M50A, N52S, M88Q; I/IV
B3: anti-IL-6 antibody, light chain T96L (heavy chain WT) (antibody, V domains shown)
VH: B1 VH
VL: B1 VL with L32M, T96L
notes: See note of m2; also called WT / T96L
B4: anti-IL-6 antibody, heavy chain variant I (M34I, G66D, I108V) / light chain variant III (M32L, M50D, N52S, M88Q) (antibody, human IgG1, V domains shown)
VH: B1 VH with M34I, G66D, I108V
VL: B1 VL with M50D, N52S, M88Q
notes: also called M34I, G66D, I108V/ M32L, M50D, N52S, M88Q; I/III
B5: anti-IL-6 antibody, light chain M88A (heavy chain WT) (antibody, V domains shown)
VH: B1 VH
VL: B1 VL with L32M, M88A
notes: See note of m2; also called WT / M88A
B6: anti-IL-6 antibody, light chain D49E (heavy chain WT) (antibody, V domains shown)
VH: B1 VH
VL: B1 VL with L32M, D49E
notes: See note of m2; also called WT / D49E
B7: anti-IL-6 antibody, light chain M50D (heavy chain WT) (antibody, V domains shown)
VH: B1 VH
VL: B1 VL with L32M, M50D
notes: See note of m2; also called WT / M50D
B8: anti-IL-6 antibody, heavy chain variant II (M34W, G66D, I108V) / light chain variant III (M32L, M50D, N52S, M88Q) (antibody, V domains shown)
VH: B1 VH with M34W, G66D, I108V
VL: B1 VL with M50D, N52S, M88Q
notes: See note of m39; also called M34W, G66D, I108V/ M32L, M50D, N52S, M88Q; II/III
B9: anti-IL-6 antibody, light chain M32V (heavy chain WT) (antibody, V domains shown)
VH: B1 VH
VL: B1 VL with L32V
notes: See note of m2; also called WT / M32V
B10: anti-IL-6 antibody, heavy chain variant II (M34W, G66D, I108V) / light chain variant IV (M32L, M50A, N52S, M88Q) (antibody, V domains shown)
VH: B1 VH with M34W, G66D, I108V
VL: B1 VL with M50A, N52S, M88Q
notes: See note of m39; also called M34W, G66D, I108V/ M32L, M50A, N52S, M88Q; II/IV
B11: anti-IL-6 antibody, light chain M88V (heavy chain WT) (antibody, V domains shown)
VH: B1 VH
VL: B1 VL with L32M, M88V
notes: See note of m2; also called WT / M88V
B12: anti-IL-6 antibody, heavy chain variant II (M34W, G66D, I108V) / light chain variant V (M32L, M50D, M88Q) (antibody, V domains shown)
VH: B1 VH with M34W, G66D, I108V
VL: B1 VL with M50D, M88Q
notes: See note of m39; also called M34W, G66D, I108V/ M32L, M50D, M88Q; II/V
B13: anti-IL-6 antibody, heavy chain variant I (M34I, G66D, I108V) / light chain variant V (M32L, M50D, M88Q) (antibody, V domains shown)
VH: B1 VH with M34I, G66D, I108V
VL: B1 VL with M50D, M88Q
notes: See note of m39; also called M34I, G66D, I108V/ M32L, M50D, M88Q; I/V
B14: anti-IL-6 antibody, light chain T96V (heavy chain WT) (antibody, V domains shown)
VH: B1 VH
VL: B1 VL with L32M, T96V
notes: See note of m2; also called WT / T96V
B15: anti-IL-6 antibody, heavy chain L106F, light chain WT (antibody, IgG1, V domains shown)
VH: B1 VH with L106F
VL: B1 VL with L32M
notes: Full IgG1 tested; V domains derived as in m2
B16: anti-IL-6 antibody, heavy chain M34W, light chain WT (antibody, IgG1, V domains shown)
VH: B1 VH with M34W
VL: B1 VL with L32M
notes: Full IgG1 tested; VL as in m2
B17: anti-IL-6 antibody, heavy chain WT, light chain A25T (antibody, IgG1, V domains shown)
VH: B1 VH
VL: B1 VL with A25T, L32M
notes: as for B15
B18: anti-IL-6 antibody, heavy chain WT, light chain I27F (antibody, IgG1, V domains shown)
VH: B1 VH
VL: B1 VL with I27F, L32M
notes: as for B15
B19: anti-IL-6 antibody, heavy chain W57F, light chain WT (antibody, IgG1, V domains shown)
VH: B1 VH with W57F
VL: B1 VL with L32M
notes: as for B15
B20: anti-IL-6 antibody, heavy chain WT, light chain I27L (antibody, IgG1, V domains shown)
VH: B1 VH
VL: B1 VL with I27L, L32M
notes: as for B15
B21: anti-IL-6 antibody, heavy chain WT, light chain I27W (antibody, IgG1, V domains shown)
VH: B1 VH
VL: B1 VL with I27W, L32M
notes: as for B15
B22: anti-IL-6 antibody, heavy chain WT, light chain A25S (antibody, IgG1, V domains shown)
VH: B1 VH
VL: B1 VL with A25S, L32M
notes: as for B15

The first assay addresses T1, recombinant human IL-6 (human, UniProt P05231 30-212).
T1 construct: Bought protein
The assay can be described thus: SPR Biacore, supernatant Ab on Protein A chip, IL-6 analyte, 25 C. How it is done: (§1) Antibodies were captured on a Protein A chip (GE) by injecting 1:20 dilution of cell supernatant at 10 μL/min for 60 seconds. […] The sensor chip was regenerated by a 60 seconds injection of 10 mM Glycine pH 1.7 at flow rate of 50 μL/min. […] For this setup, 1 μg/mL of purified antibody was injected over a Protein A chip at 10 μL/min for 25-28 seconds. Data analysis for supernatant and purified samples were performed using BIAevaluation software (GE). All sensorgrams were double reference subtracted and fit using a 1:1 Langmuir binding model.
T1 sequence (P05231 30-212 limits assumed): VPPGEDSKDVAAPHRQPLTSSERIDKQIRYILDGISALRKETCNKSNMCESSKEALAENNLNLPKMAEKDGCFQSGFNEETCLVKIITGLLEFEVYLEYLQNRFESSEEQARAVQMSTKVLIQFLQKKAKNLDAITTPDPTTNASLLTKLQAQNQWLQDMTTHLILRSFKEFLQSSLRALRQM
B1: the Kd came out at 0.199 nM, the off-rate constant (koff) worked out at 0.000118 s⁻¹ and the kon is 591000 M⁻¹ s⁻¹.

For B2, the dissociation constant Kd amounted to 0.323 nM, the koff was found to be 0.000214 s⁻¹ and the association rate constant (kon) came out at 462000 M⁻¹ s⁻¹.

As for B3, the Kd worked out at 0.259 nM, the koff is 0.000135 s⁻¹ and the kon stood at 520000 M⁻¹ s⁻¹.

With B4, the dissociation constant Kd was found to be 0.552 nM and the off-rate (koff) stood at 0.0002 s⁻¹.

On to B5, for which the dissociation constant Kd is 0.282 nM, the dissociation rate constant (koff) came out at 0.000127 s⁻¹ and the on-rate (kon) came out at 451000 M⁻¹ s⁻¹.

As for B6, the dissociation constant Kd amounted to 0.241 nM, the koff amounted to 0.000111 s⁻¹ and the kon turned out to be 459000 M⁻¹ s⁻¹.

For B7, the Kd came to 0.138 nM, the off-rate constant (koff) was 0.000112 s⁻¹ and the kon was 806000 M⁻¹ s⁻¹.

For the molecule B8, the Kd worked out at 0.37 nM and the dissociation rate constant (koff) turned out to be 0.000173 s⁻¹.

For B9, the equilibrium dissociation constant (Kd) is 0.23 nM, the dissociation rate constant (koff) is 0.000116 s⁻¹ and the association rate constant (kon) came to 505000 M⁻¹ s⁻¹.

With B10, the Kd turned out to be 0.297 nM, the off-rate (koff) was 0.00117 s⁻¹ and the kon worked out at 559000 M⁻¹ s⁻¹.

Regarding B11, the equilibrium dissociation constant (Kd) turned out to be 0.239 nM, the off-rate constant (koff) amounted to 0.000107 s⁻¹ and the kon was found to be 448000 M⁻¹ s⁻¹.

For the molecule B12, the Kd is 0.231 nM, the off-rate constant (koff) stood at 0.000271 s⁻¹ and the kon amounted to 700000 M⁻¹ s⁻¹.

Regarding B13, the Kd was 0.386 nM.

Regarding B14, the Kd came out at 0.423 nM, the koff was 0.000192 s⁻¹ and the kon worked out at 454000 M⁻¹ s⁻¹.

The target of a further assay is T2, recombinant human IL-6 (human, UniProt P05231 30-212).
T2 construct: Flowed in solution over the captured antibodies
The assay is described as follows: SPR (Biacore), supernatant IgG on Protein A, 25 C.
T2 sequence (P05231 30-212 limits assumed): as above
With B15, the Kd came to 0.314 nM, the off-rate (koff) was determined as 0.000185 s⁻¹ and the on-rate (kon) is 591000 M⁻¹ s⁻¹.

As to B16, the Kd was 0.39 nM, the koff amounted to 0.000115 s⁻¹ and the kon is 296000 M⁻¹ s⁻¹.

Take B17: the equilibrium dissociation constant (Kd) came to 0.235 nM, the off-rate constant (koff) stood at 0.000119 s⁻¹ and the kon came out at 508000 M⁻¹ s⁻¹.

With B18, the dissociation constant Kd was determined as 0.443 nM, the koff turned out to be 0.000193 s⁻¹ and the kon stood at 436000 M⁻¹ s⁻¹.

Turning to B19, the equilibrium dissociation constant (Kd) worked out at 0.222 nM, the koff came to 0.000128 s⁻¹ and the kon was determined as 577000 M⁻¹ s⁻¹.

With B20, the Kd was 0.332 nM, the dissociation rate constant (koff) worked out at 0.000145 s⁻¹ and the kon was determined as 437000 M⁻¹ s⁻¹.

With B21, the dissociation constant (Kd) was 0.33 nM, the off-rate constant (koff) is 0.000161 s⁻¹ and the association rate constant (kon) is 487000 M⁻¹ s⁻¹.

For B22, the Kd worked out at 0.197 nM, the off-rate constant (koff) amounted to 0.000105 s⁻¹ and the kon stood at 535000 M⁻¹ s⁻¹.

A further assay deals with T1, recombinant human IL-6. The assay is described as follows: SPR Biacore, purified Ab on Protein A chip, IL-6 analyte, 37 C. How it is done: as §1
With B1, the Kd was found to be 0.395 nM, the off-rate (koff) is 0.00035 s⁻¹ and the kon stood at 885000 M⁻¹ s⁻¹.

B2: the Kd was 0.556 nM, the off-rate constant (koff) was 0.000757 s⁻¹ and the kon turned out to be 1.15e+06 M⁻¹ s⁻¹.

On to B3, for which the equilibrium dissociation constant (Kd) is 0.901 nM, the koff worked out at 0.000795 s⁻¹ and the kon worked out at 882000 M⁻¹ s⁻¹.

As to B4, the Kd came out at 0.625 nM, the dissociation rate constant (koff) worked out at 0.000702 s⁻¹ and the kon stood at 1.22e+06 M⁻¹ s⁻¹.

As to B5, the Kd came out at 2.25 nM, the off-rate constant (koff) came to 0.00132 s⁻¹ and the kon is 586000 M⁻¹ s⁻¹.

For the molecule B6, the Kd amounted to 0.624 nM, the off-rate (koff) was determined as 0.000417 s⁻¹ and the kon came to 668000 M⁻¹ s⁻¹.

On to B7, for which the Kd worked out at 0.311 nM, the koff was found to be 0.000464 s⁻¹ and the kon came out at 1.49e+06 M⁻¹ s⁻¹.

In the case of B8, the Kd was 0.507 nM, the off-rate (koff) came to 0.000551 s⁻¹ and the kon is 1.19e+06 M⁻¹ s⁻¹.

Consider B9, for which the equilibrium dissociation constant (Kd) worked out at 0.429 nM, the dissociation rate constant (koff) was found to be 0.000369 s⁻¹ and the kon was 861000 M⁻¹ s⁻¹.

Take B10: the Kd was determined as 0.615 nM, the dissociation rate constant (koff) was determined as 0.000652 s⁻¹ and the kon was 1.08e+06 M⁻¹ s⁻¹.

Regarding B11, the dissociation constant Kd is 0.713 nM, the off-rate (koff) came out at 0.000441 s⁻¹ and the kon turned out to be 619000 M⁻¹ s⁻¹.

For B12, the Kd stood at 0.465 nM, the off-rate constant (koff) was 0.000627 s⁻¹ and the kon was determined as 1.34e+06 M⁻¹ s⁻¹.

B13: the dissociation constant (Kd) stood at 0.602 nM and the dissociation rate constant (koff) stood at 0.00073 s⁻¹.

In the case of B14, the equilibrium dissociation constant (Kd) was 0.695 nM, the koff came out at 0.000639 s⁻¹ and the association rate constant (kon) turned out to be 921000 M⁻¹ s⁻¹.

A further assay concerns the target T2, recombinant human IL-6. The assay is described as follows: SPR (Biacore), purified IgG on Protein A, 37 C. Here is the method:
as §1
For B15, the equilibrium dissociation constant (Kd) stood at 0.634 nM, the koff was determined as 0.000541 s⁻¹ and the kon was 852000 M⁻¹ s⁻¹.

With B16, the Kd is 0.394 nM, the off-rate constant (koff) was 0.000236 s⁻¹ and the kon was determined as 599000 M⁻¹ s⁻¹.

Consider B17, for which the Kd amounted to 0.425 nM, the off-rate (koff) amounted to 0.000378 s⁻¹ and the kon amounted to 889000 M⁻¹ s⁻¹.

Turning to B18, the Kd was determined as 0.685 nM, the koff worked out at 0.00069 s⁻¹ and the kon was found to be 1.01e+06 M⁻¹ s⁻¹.

Turning to B19, the Kd was found to be 0.524 nM, the off-rate (koff) came to 0.000453 s⁻¹ and the association rate constant (kon) is 864000 M⁻¹ s⁻¹.

With B20, the Kd was found to be 0.553 nM, the off-rate (koff) came out at 0.000449 s⁻¹ and the kon worked out at 811000 M⁻¹ s⁻¹.

As for B21, the dissociation constant (Kd) came out at 0.719 nM, the koff was found to be 0.000764 s⁻¹ and the kon came out at 1.06e+06 M⁻¹ s⁻¹.

B22: the dissociation constant (Kd) came out at 0.438 nM, the koff was 0.000342 s⁻¹ and the kon is 782000 M⁻¹ s⁻¹.
